T1: LMNA (human, UniProt P02545 1-646, limits assumed)
T1 construct: also called NP_733821.1
T1 sequence (looked up): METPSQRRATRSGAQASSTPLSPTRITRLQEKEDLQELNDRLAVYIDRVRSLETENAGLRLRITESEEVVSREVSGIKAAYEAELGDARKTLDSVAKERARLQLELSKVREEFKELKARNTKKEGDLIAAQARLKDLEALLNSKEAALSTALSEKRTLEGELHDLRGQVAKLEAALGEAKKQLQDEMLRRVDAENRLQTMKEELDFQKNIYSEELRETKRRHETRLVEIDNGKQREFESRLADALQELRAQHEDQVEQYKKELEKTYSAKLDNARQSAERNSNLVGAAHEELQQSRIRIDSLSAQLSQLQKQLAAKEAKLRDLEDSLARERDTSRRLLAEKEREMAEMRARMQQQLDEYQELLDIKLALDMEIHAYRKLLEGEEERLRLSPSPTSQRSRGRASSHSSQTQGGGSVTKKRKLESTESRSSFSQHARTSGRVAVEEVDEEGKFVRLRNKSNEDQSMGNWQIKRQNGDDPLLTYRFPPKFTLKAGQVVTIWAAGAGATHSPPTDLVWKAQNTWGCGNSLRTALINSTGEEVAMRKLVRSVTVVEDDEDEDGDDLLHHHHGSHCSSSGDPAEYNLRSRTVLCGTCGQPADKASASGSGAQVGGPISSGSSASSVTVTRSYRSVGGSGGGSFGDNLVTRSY

T2: CSE1L (human, UniProt P55060-4 1-915, limits assumed)
T2 construct: also called NP_001243064.1 (+2)
T2 sequence (looked up): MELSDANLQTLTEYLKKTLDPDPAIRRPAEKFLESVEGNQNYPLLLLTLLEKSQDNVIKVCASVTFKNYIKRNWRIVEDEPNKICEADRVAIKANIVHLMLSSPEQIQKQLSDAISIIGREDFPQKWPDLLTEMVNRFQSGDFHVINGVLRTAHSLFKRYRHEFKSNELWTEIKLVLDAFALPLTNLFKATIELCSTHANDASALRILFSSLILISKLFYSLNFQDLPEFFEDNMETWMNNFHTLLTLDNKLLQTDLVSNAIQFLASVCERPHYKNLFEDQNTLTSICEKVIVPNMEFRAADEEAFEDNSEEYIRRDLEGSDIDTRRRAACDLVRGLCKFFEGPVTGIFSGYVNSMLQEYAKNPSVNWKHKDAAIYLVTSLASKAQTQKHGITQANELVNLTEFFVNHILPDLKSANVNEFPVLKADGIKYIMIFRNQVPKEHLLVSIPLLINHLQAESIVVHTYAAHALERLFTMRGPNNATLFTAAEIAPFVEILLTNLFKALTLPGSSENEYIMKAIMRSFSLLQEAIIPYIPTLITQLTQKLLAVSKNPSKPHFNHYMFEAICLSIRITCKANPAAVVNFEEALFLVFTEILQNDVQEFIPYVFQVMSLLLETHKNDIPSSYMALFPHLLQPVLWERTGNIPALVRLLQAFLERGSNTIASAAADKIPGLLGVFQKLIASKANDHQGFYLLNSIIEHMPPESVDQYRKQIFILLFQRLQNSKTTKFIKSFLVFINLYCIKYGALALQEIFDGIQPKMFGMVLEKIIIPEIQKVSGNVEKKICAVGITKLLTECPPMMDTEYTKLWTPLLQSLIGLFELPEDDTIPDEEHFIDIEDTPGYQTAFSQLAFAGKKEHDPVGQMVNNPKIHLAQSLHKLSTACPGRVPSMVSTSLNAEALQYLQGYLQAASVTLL


Key:
LMNA = biological target: T1, LMNA; test: co-IP, anti-FLAG, lysate of cells with N-FLAG B3GNT2; mass spectrometry
CSE1L = biological target: T2, CSE1L; test: as above
RPL4 = RPL4 (human, UniProt P36578 2-427); test: as above
RPS4X = RPS4X (human, UniProt P62701 2-263); test: co-IP with anti-FLAG, mass spectrometry; lysate of cells with N-FLAG B3GNT2
Experimental: Cells were plated in 10-cm cell culture dishes and grown to 60-80% confluency. For each condition, two biological replicates were harvested for co-IP. Cells were washed with PBS and 4 mL of lysis buffer (20 mM HEPES, 1% Triton X-100, 150 mM NaCl, 1 mM EDTA, and 10% glycerol) containing protease inhibitor cocktail was added. Cells were scraped and lysate was incubated at 4° C. under rotary agitation for 1 h. Lysate was centrifuged at 14,000×g for 10 min at 4° C. Supernatant was transferred to a new tube and an aliquot was taken as the input. […] For Western blots, 10 μg/mL Chicken Anti-FLAG (Aves labs ET-DY100) and IgY control (R&D Systems AB-101-C) antibodies were biotinylated (Thermo Fisher Scientific 90407) and added to the respective conditions. Lysates with antibodies were incubated at 4° C. under rotary agitation overnight. For each mL of lysate, 50 μL of Pierce Protein A/G Magnetic Beads (Mass spectrometry; Thermo Fisher Scientific 88803) or Pierce Streptavidin Magnetic Beads (Western blot; Thermo Fisher Scientific 88817) was washed twice with lysis buffer. Lysates with antibodies were added to the beads and incubated at 4° C. under rotary agitation for 4 h. Beads were washed with lysis buffer 3 times and resuspended in lysis buffer for storage.
Magnetic beads were resuspended in 100 mM Tris pH 7.8, reduced, alkylated and digested with trypsin at 37° ° C. overnight. This solution was subjected to solid phase extraction to concentrate the peptides and remove unwanted reagents followed by injection onto a Shimadzu HPLC with fraction collector. Eight fractions were collected and after concentration were injected on a Waters NanoAcquity HPLC equipped with a self-packed Aeris 3 μm C18 analytical column 0.075 mm by 20 cm, (Phenomenex). Peptides were eluted using standard reverse-phase gradients. The effluent from the column was analyzed using a Thermo Orbitrap Elite mass spectrometer (nanospray configuration) operated in a data dependent manner for 54 minutes. The resulting fragmentation spectra were correlated against the known database using Proteome Discover 1.4 (Thermo Fisher Scientific).

Binder	co-IP mass spectrometry count (LMNA)	co-IP mass spectrometry count (CSE1L)	co-IP mass spectrometry count (RPL4)	co-IP mass spectrometry count (RPS4X)
N-terminal FLAG tagged B3GNT2 (enzyme, human, UniProt Q9NY97 1-397, looked up, Overexpressed in cells and pulled down from the lysate with mouse anti-FLAG antibody; also called N-FLAG B3GNT2; N-term FLAG; not shown: N-terminal FLAG tag) MSVGRRRIKLLGILMMANVFIYFIMEVSKSSSQEKNGKGEVIIPKEKFWKISTPPEAYWNREQEKLNRQYNPILSMLTNQTGEAGRLSNISHLNYCEPDLRVTSVVTGFNNLPDRFKDFLLYLRCRNYSLLIDQPDKCAKKPFLLLAIKSLTPHFARRQAIRESWGQESNAGNQTVVRVFLLGQTPPEDNHPDLSDMLKFESEKHQDILMWNYRDTFFNLSLKEVLFLRWVSTSCPDTEFVFKGDDDVFVNTHHILNYLNSLSKTKAKDLFIGDVIHNAGPHRDKKLKYYIPEVVYSGLYPPYAGGGGFLYSGHLALRLYHITDQVHLYPIDDVYTGMCLQKLGLVPEKHKGFRTFDIEEKNKNNICSYVDLMLVHSRKPQEMIDIWSQLQSAHLKC	11	0	15	
N-terminal FLAG tagged B3GNT2 (enzyme, human, UniProt Q9NY97 1-397, looked up, Bait of the co-IP; pulled down with mouse anti-FLAG (Millipore Sigma F3165) from cell lysate; also called N-FLAG B3GNT2; N-term FLAG; not shown: N-terminal FLAG tag) MSVGRRRIKLLGILMMANVFIYFIMEVSKSSSQEKNGKGEVIIPKEKFWKISTPPEAYWNREQEKLNRQYNPILSMLTNQTGEAGRLSNISHLNYCEPDLRVTSVVTGFNNLPDRFKDFLLYLRCRNYSLLIDQPDKCAKKPFLLLAIKSLTPHFARRQAIRESWGQESNAGNQTVVRVFLLGQTPPEDNHPDLSDMLKFESEKHQDILMWNYRDTFFNLSLKEVLFLRWVSTSCPDTEFVFKGDDDVFVNTHHILNYLNSLSKTKAKDLFIGDVIHNAGPHRDKKLKYYIPEVVYSGLYPPYAGGGGFLYSGHLALRLYHITDQVHLYPIDDVYTGMCLQKLGLVPEKHKGFRTFDIEEKNKNNICSYVDLMLVHSRKPQEMIDIWSQLQSAHLKC				14
